Source: paper PMC13541614 (2026)

B1: CR6261 (broadly neutralizing antibody targeting the stem region of HA), IgG (antibody, V domains shown)
VH: EVQLVESGAEVKKPGSSVKVSCKASGGPFRSYAISWVRQAPGQGPEWMGGIIPIFGTTKYAPKFQGRVTITADDFAGTVYMELSSLRSEDTAMYYCAKHMGYQVRETMDVWGKGTTVTVSS
VL: QSVLTQPPSVSAAPGQKVTISCSGSSSNIGNDYVSWYQQLPGTAPKLLIYDNNKRPSGIPDRFSGSKSGTSATLGITGLQTGDEANYYCATWDRRPTAYVVFGGGTKLTVL
B2: 13D4 (broadly neutralizing antibody targeting the head region of HA), IgG (antibody, V domains shown)
VH: QVQLQQSGAELMKPGASVKISCKATGYTFSGHWIEWVKQRPGHGLEWIGEILPGSGNIHYNEKFKGKATFAADTSSNTAYMQLSSLTSEDSAVYYCARLGTTAVERDWYFDVWGAGTTVTVSL
VL: DIVMTQSQKFMSASVGDRVSVTCKASQNVGTHLAWYQQKPGQSPKALIYSASYRYSGVPDRFTGSGSGTDFTLTISNVQSGDLADYFCQQYNNFPLTFGAGTKLEIK

Biological target: H5N1 influenza hemagglutinin (HA) of A/Vietnam/1203/2004, native (wild type) (Influenza A virus A/Vietnam/1203/2004 …, biotin on the AviTag (expressed in the presence of BirA))
Assay: BLI

Binder	Kd [pM]
B1	460
B2	640
